# Measurements from patent US6150168.
# Columns and labels:
# [1] = molecular target: ASOR receptor (asialoglycoprotein receptor) on primary mouse hepatocytes (mouse) (UniProt P34927); conditions: scale: % conversion of phenylalanine to tyrosine
# [2] = molecular target: ASOR receptor (asialoglycoprotein receptor) on primary mouse hepatocytes (mouse) (UniProt P34927)
# [3] = molecular target: ASOR receptor (asialoglycoprotein receptor) on primary mouse hepatocytes (mouse) (UniProt P34927); remark: listed apart in the source
# [4] = molecular target: adenovirus receptor on primary mouse hepatocytes (mouse)
# [5] = molecular target: ASOR receptor (asialoglycoprotein receptor) on primary mouse hepatocytes (mouse) (UniProt P34927); remark: listed apart in the source
# [6] = molecular target: ASOR receptor on HepG2 cells
substance,measurement,setting,value
ASOR/poly-L-lysine conjugate (ASOR/PLL conjugate),phenylalanine hydroxylase activity (percent conversion of phenylalanine to tyrosine) in PAH deficient mouse hepatocytes after delivery of CMV/hPAH DNA in complex form with adenovirus,[1],26
same,canine factor IX (cFIX) level in supernatants of primary mouse hepatocytes after delivery of pCMV/cFIX with the high EDC ADV-PLL/DNA complex (µg/10^6 cells/24 hours),[2],0.79
same,"percentage of cells expressing β-gal, ASOR-PLL/DNA complexes with free adenovirus, in the presence of a 1000-fold excess of free ASOR",[3],< 2 % of cells
same,"percentage of cells staining blue, complex containing adenovirus conjugated with PLL at high EDC concentrations, in the presence of a 1000-fold excess of free ASOR",[3],< 30 % of cells
same,"percentage of cells staining positive for beta-gal, complex containing adenovirus conjugated with PLL at low EDC concentrations, in the presence of a 1000-fold excess of free ASOR",[3],80 % of cells
adenovirus (d1312) conjugated with PLL at low EDC concentrations,"percentage of cells staining positive for beta-gal after delivery with the low EDC ADV-PLL/DNA complex, in the presence of a 1000-fold excess of free ASOR",[4],80 % of cells
asialoorosomucoid (ASOR) (ligand),internalized ^3 H counts after a 2 hour incubation (dose-response of ^3 H-ASOR uptake) (molecules/cell),[5],320000
same,internalized ^3 H counts after a 2 hour incubation (dose-response of ^3 H-ASOR uptake) (molecules/cell),[6],150000
